Blank lines part the entries; values can stand above or below the binder they belong to.
Target: T1, CD11b (mouse, UniProt P05555 17-1153)
T1 construct: Endogenous protein immunoprecipitated from Raw264.7 macrophage extracts with monoclonal CD11b antibody; Its integrin beta partner is not mentioned
Experiment: co-immunoprecipitation with monoclonal CD11b antibody, Western blot

T1 sequence (P05555 17-1153 limits assumed): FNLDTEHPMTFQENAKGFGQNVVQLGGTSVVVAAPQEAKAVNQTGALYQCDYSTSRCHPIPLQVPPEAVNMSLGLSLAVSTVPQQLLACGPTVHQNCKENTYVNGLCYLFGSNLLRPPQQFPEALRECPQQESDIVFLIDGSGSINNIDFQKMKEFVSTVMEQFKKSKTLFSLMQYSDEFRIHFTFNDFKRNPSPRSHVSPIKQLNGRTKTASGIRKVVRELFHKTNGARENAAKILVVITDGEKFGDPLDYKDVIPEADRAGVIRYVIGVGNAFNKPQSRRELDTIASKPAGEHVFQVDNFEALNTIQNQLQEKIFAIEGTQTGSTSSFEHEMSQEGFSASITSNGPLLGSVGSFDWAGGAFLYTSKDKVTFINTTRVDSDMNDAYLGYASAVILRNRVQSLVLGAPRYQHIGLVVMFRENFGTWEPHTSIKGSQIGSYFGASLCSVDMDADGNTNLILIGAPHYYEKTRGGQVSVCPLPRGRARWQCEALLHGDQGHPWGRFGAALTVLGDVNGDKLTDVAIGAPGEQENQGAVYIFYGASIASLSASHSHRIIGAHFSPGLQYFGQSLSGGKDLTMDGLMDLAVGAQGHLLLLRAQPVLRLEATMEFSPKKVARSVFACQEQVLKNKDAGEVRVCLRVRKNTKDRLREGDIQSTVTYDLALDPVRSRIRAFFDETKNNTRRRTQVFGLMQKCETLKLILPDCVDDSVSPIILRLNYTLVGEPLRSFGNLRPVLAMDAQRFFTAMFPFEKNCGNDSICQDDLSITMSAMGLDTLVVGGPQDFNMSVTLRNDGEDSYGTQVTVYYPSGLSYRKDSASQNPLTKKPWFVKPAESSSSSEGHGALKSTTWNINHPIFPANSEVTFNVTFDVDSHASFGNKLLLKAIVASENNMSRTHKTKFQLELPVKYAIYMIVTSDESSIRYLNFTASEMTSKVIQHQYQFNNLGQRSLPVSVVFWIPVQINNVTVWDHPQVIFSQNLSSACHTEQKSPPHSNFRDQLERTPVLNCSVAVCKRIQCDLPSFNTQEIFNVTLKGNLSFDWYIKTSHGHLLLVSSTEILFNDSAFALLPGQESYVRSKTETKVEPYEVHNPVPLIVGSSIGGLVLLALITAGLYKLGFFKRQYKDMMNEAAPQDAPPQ

binding result: no binding
B1: CD36 (receptor, mouse, UniProt Q08857 1-472, looked up)
chain: MGCDRNCGLIAGAVIGAVLAVFGGILMPVGDMLIEKTIKREVVLEEGTTAFKNWVKTGTTVYRQFWIFDVQNPDDVAKNSSKIKVKQRGPYTYRVRYLAKENITQDPEDHTVSFVQPNGAIFEPSLSVGTEDDNFTVLNLAVAAAPHIYQNSFVQVVLNSLIKKSKSSMFQTRSLKELLWGYKDPFLSLVPYPISTTVGVFYPYNDTVDGVYKVFNGKDNISKVAIIESYKGKRNLSYWPSYCDMINGTDAASFPPFVEKSRTLRFFSSDICRSIYAVFGSEIDLKGIPVYRFVLPANAFASPLQNPDNHCFCTEKVISNNCTSYGVLDIGKCKEGKPVYISLPHFLHASPDVSEPIEGLHPNEDEHRTYLDVEPITGFTLQFAKRLQVNILVKPARKIEALKNLKRPYIVPILWLNETGTIGDEKAEMFKTQVTGKIKLLGMVEMALLGIGVVMFVAFMISYCACKSKNGK

binding result: no binding
B2: TLR-2 (receptor, mouse, UniProt Q9QUN7 25-784, looked up)
chain: QESLSCDASGVCDGRSRSFTSIPSGLTAAMKSLDLSFNKITYIGHGDLRACANLQVLILKSSRINTIEGDAFYSLGSLEHLDLSDNHLSSLSSSWFGPLSSLKYLNLMGNPYQTLGVTSLFPNLTNLQTLRIGNVETFSEIRRIDFAGLTSLNELEIKALSLRNYQSQSLKSIRDIHHLTLHLSESAFLLEIFADILSSVRYLELRDTNLARFQFSPLPVDEVSSPMKKLAFRGSVLTDESFNELLKLLRYILELSEVEFDDCTLNGLGDFNPSESDVVSELGKVETVTIRRLHIPQFYLFYDLSTVYSLLEKVKRITVENSKVFLVPCSFSQHLKSLEFLDLSENLMVEEYLKNSACKGAWPSLQTLVLSQNHLRSMQKTGEILLTLKNLTSLDISRNTFHPMPDSCQWPEKMRFLNLSSTGIRVVKTCIPQTLEVLDVSNNNLDSFSLFLPRLQELYISRNKLKTLPDASLFPVLLVMKIRENAVSTFSKDQLGSFPKLETLEAGDNHFVCSCELLSFTMETPALAQILVDWPDSYLCDSPPRLHGHRLQDARPSVLECHQAALVSGVCCALLLLILLVGALCHHFHGLWYLRMMWAWLQAKRKPKKAPCRDVCYDAFVSYSEQDSHWVENLMVQQLENSDPPFKLCLHKRDFVPGKWIIDNIIDSIEKSHKTVFVLSENFVRSEWCKYELDFSHFRLFDENNDAAILVLLEPIERKAIPQRFCKLRKIMNTKTYLEWPLDEGQQEVFWVNLRTAIKS
